Experimental findings from the supplement of paper PMC10567573 are described below.

First the molecules themselves.
B1: RAB40A (parent)
chain: NWLGRPSKVLSLQDLCCRTIVSCT
B2: CLPTM1 (parent)
chain: LGCYAVYSLLYLEHKGWYSWVLSM
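Note: lentivirally expressed fusions sorted by FACS into six bins by GFP to DsRed ratio, PSI derived from sequencing read proportions per bin multiplied by bin number.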

In the first series the parent is B1. In words: protein stability index of a GFP-peptide fusion (GPS, HEK-293T) (PSI 1-6); higher = more stable. Particulars: c terminus: a fixed tail appended.
As for NWLGRPSKVLSLQDLCCRTIRSCT [V21R], the protein stability index is 3.04.
Still for that read-out and setting: as for NWLGRPSKVLSLQDLCCRTITSCT [V21T], the figure is 2.58; as for NWLGRPSKVLSLQDLCCRTIWSCT [V21W], 2.46; as for NWLGRPSKVLSLQDLCCRTIGSCT [V21G], 2.64.
Still for that read-out and setting: under NWLGRPSKVLSLQDLCCRTILSCT [V21L] stands 2.04; under NWLGRPSKVLSLQDLCCRTICSCT [V21C], 2.41; under NWLGRPSKVLSLQDLCCRTISSCT [V21S], 2.77.
As for NWLGRPSKVLSLQDLCCRTIMSCT [V21M], the protein stability index stood at 2.66.
The same measure, in the same setting: under NWLGRPSKVLSLQDLCCRTINSCT [V21N] stands 2.8.
Regarding NWLGRPSKVLSLQDLCCRTIYSCT [V21Y], the protein stability index is 2.08.
The same measure, in the same setting: under NWLGRPSKVLSLQDLCCRTIPSCT [V21P] stands 2.89; under NWLGRPSKVLSLQDLCCRTIFSCT [V21F], 2.43; under NWLGRPSKVLSLQDLCCRTIASCT [V21A], 2.64.
Still for that read-out and setting: under NWLGRPSKVLSLQDLCCRTIHSCT [V21H] stands 2.44.
Same read-out and setting: under NWLGRPSKVLSLQDLCCRTIESCT [V21E] stands 1.88.
NWLGRPSKVLSLQDLCCRTIISCT [V21I]: the protein stability index amounted to 2.31.
The same measure, in the same setting: as for NWLGRPSKVLSLQDLCCRTIQSCT [V21Q], the figure is 2.8.
With NWLGRPSKVLSLQDLCCRTIDSCT [V21D], the protein stability index was 3.02.
In the case of NWLGRPSKVLSLQDLCCRTIKSCT [V21K], the protein stability index was 2.55.
With NWLGRPSKVLSLQDLCCRTIVSHT [C23H], the protein stability index came out at 2.69.
The same measure, in the same setting: under NWLGRPSKVLSLQDLCCRTIVSKT [C23K] stands 2.92.
For the variant NWLGRPSKVLSLQDLCCRTIVSQT [C23Q], the protein stability index was determined as 3.46.
Still for that read-out and setting: under NWLGRPSKVLSLQDLCCRTIVSPT [C23P] stands 2.68; under NWLGRPSKVLSLQDLCCRTIVSET [C23E], 2.8.
The same measure, in the same setting: under NWLGRPSKVLSLQDLCCRTIVSAT [C23A] stands 2.74; under NWLGRPSKVLSLQDLCCRTIVSIT [C23I], 2.33.
Turning to NWLGRPSKVLSLQDLCCRTIVSLT [C23L], the protein stability index turned out to be 2.37.
On the same count and under the same terms, under NWLGRPSKVLSLQDLCCRTIVSFT [C23F] stands 2.33; under NWLGRPSKVLSLQDLCCRTIVSDT [C23D], 3.12.
Same read-out and setting: as for NWLGRPSKVLSLQDLCCRTIVSTT [C23T], the figure is 2.66; as for NWLGRPSKVLSLQDLCCRTIVSWT [C23W], 2.67; as for NWLGRPSKVLSLQDLCCRTIVSGT [C23G], 3.28.
On the same count and under the same terms, as for NWLGRPSKVLSLQDLCCRTIVSMT [C23M], the figure is 2.33.
On to NWLGRPSKVLSLQDLCCRTIVSVT [C23V], for which the protein stability index stood at 2.21.
Consider NWLGRPSKVLSLQDLCCRTIVSYT [C23Y], for which the protein stability index came to 2.35.
On to NWLGRPSKVLSLQDLCCRTIVSRT [C23R], for which the protein stability index was 2.92.
On the same count and under the same terms, under NWLGRPSKVLSLQDLCCRTIVSST [C23S] stands 2.95; under NWLGRPSKVLSLQDLCCRTIVSNT [C23N], 2.93; under NWLGRPSKVLSLQDLCCRTIVSCE [T24E], 2.58.
For the variant NWLGRPSKVLSLQDLCCRTIVSCR [T24R], the protein stability index was 2.89.
Still for that read-out and setting: as for NWLGRPSKVLSLQDLCCRTIVSCQ [T24Q], the figure is 3.19; as for NWLGRPSKVLSLQDLCCRTIVSCN [T24N], 2.87.
Same read-out and setting: under NWLGRPSKVLSLQDLCCRTIVSCF [T24F] stands 2.63.
Same read-out and setting: as for NWLGRPSKVLSLQDLCCRTIVSCD [T24D], the figure is 2.85; as for NWLGRPSKVLSLQDLCCRTIVSCI [T24I], 1.58; as for NWLGRPSKVLSLQDLCCRTIVSCC [T24C], 2.07.
For NWLGRPSKVLSLQDLCCRTIVSCH [T24H], the protein stability index stood at 2.64.
Same read-out and setting: under NWLGRPSKVLSLQDLCCRTIVSCM [T24M] stands 2.27; under NWLGRPSKVLSLQDLCCRTIVSCA [T24A], 2.5.
Still for that read-out and setting: as for NWLGRPSKVLSLQDLCCRTIVSCS [T24S], the figure is 2.62; as for NWLGRPSKVLSLQDLCCRTIVSCK [T24K], 3.2; as for NWLGRPSKVLSLQDLCCRTIVSCW [T24W], 2.2.
Same read-out and setting: under NWLGRPSKVLSLQDLCCRTIVSCL [T24L] stands 2.31; under NWLGRPSKVLSLQDLCCRTIVSCV [T24V], 2.28; under NWLGRPSKVLSLQDLCCRTIVSCP [T24P], 3.02.
With NWLGRPSKVLSLQDLCCRTIVSCG [T24G], the protein stability index stood at 2.6.
On the same count and under the same terms, under NWLGRPSKVLSLQDLCCRTIVSCY [T24Y] stands 2.13.
On the same count and under the same terms, as for NWLGRPSKVLSLQDLCCRTIVMCT [S22M], the figure is 2.61; as for NWLGRPSKVLSLQDLCCRTIVFCT [S22F], 2.47.
For NWLGRPSKVLSLQDLCCRTIVPCT [S22P], the protein stability index came to 2.
The same measure, in the same setting: as for NWLGRPSKVLSLQDLCCRTIVACT [S22A], the figure is 2.23.
Still for that read-out and setting: as for NWLGRPSKVLSLQDLCCRTIVCCT [S22C], the figure is 2.59; as for NWLGRPSKVLSLQDLCCRTIVWCT [S22W], 2.04.
On the same count and under the same terms, as for NWLGRPSKVLSLQDLCCRTIVLCT [S22L], the figure is 2.31; as for NWLGRPSKVLSLQDLCCRTIVKCT [S22K], 2.75; as for NWLGRPSKVLSLQDLCCRTIVECT [S22E], 2.57.
Turning to NWLGRPSKVLSLQDLCCRTIVGCT [S22G], the protein stability index came out at 2.57.
Same read-out and setting: as for NWLGRPSKVLSLQDLCCRTIVYCT [S22Y], the figure is 1.95.
Same read-out and setting: under NWLGRPSKVLSLQDLCCRTIVVCT [S22V] stands 1.77.
The same measure, in the same setting: under NWLGRPSKVLSLQDLCCRTIVNCT [S22N] stands 2.69; under NWLGRPSKVLSLQDLCCRTIVTCT [S22T], 2.4; under NWLGRPSKVLSLQDLCCRTIVQCT [S22Q], 2.59.
With NWLGRPSKVLSLQDLCCRTIVDCT [S22D], the protein stability index worked out at 2.83.
Still for that read-out and setting: as for NWLGRPSKVLSLQDLCCRTIVRCT [S22R], the figure is 2.77; as for NWLGRPSKVLSLQDLCCRTIVHCT [S22H], 2.26; as for NWLGRPSKVLSLQDLCCRTIVICT [S22I], 1.88.
On the same count and under the same terms, under NWLGRPSKVLSLQDLCCRTTVSCT [I20T] stands 1.73; under NWLGRPSKVLSLQDLCCRTYVSCT [I20Y], 2.1; under NWLGRPSKVLSLQDLCCRTPVSCT [I20P], 2.42.
Same read-out and setting: under NWLGRPSKVLSLQDLCCRTWVSCT [I20W] stands 2.18; under NWLGRPSKVLSLQDLCCRTSVSCT [I20S], 2.08; under NWLGRPSKVLSLQDLCCRTRVSCT [I20R], 2.54.
NWLGRPSKVLSLQDLCCRTVVSCT [I20V]: the protein stability index was found to be 2.14.
Still for that read-out and setting: under NWLGRPSKVLSLQDLCCRTLVSCT [I20L] stands 2.74; under NWLGRPSKVLSLQDLCCRTNVSCT [I20N], 1.91.
For the variant NWLGRPSKVLSLQDLCCRTMVSCT [I20M], the protein stability index is 2.83.
Still for that read-out and setting: as for NWLGRPSKVLSLQDLCCRTQVSCT [I20Q], the figure is 2.26.

A further series covers variants of B2. Described as above. The note with it: c terminus: a fixed tail appended.
With LGCYAFYSLLYLEHKGWYSWVLSM [V6F], the protein stability index was 3.45.
Same read-out and setting: as for LGCYASYSLLYLEHKGWYSWVLSM [V6S], the figure is 2.76; as for LGCYAEYSLLYLEHKGWYSWVLSM [V6E], 2.84; as for LGCYAGYSLLYLEHKGWYSWVLSM [V6G], 2.72.
On the same count and under the same terms, under LGCYAAYSLLYLEHKGWYSWVLSM [V6A] stands 3.13; under LGCYAKYSLLYLEHKGWYSWVLSM [V6K], 2.83.
Turning to LGCYADYSLLYLEHKGWYSWVLSM [V6D], the protein stability index stood at 3.58.
